# According to article PMC12057046, “Elucidation of short linear motif-based interactions of the MIT and rhodanese domains of the ubiquitin-specific protease 8” (Biology Direct, 2025):
# B1: KIAA1614 peptide 568-583 (uncharacterized protein KIAA1614), 16-mer library wild type / USP8 rhodanese domain (ubiquitin carboxyl-terminal hydrolase 8, residues 174-317) (parent)
# chain 1: GMERVLGGLSSPLRLL
# chain 2: KCETKEKGAITAKELYTMMTDKNISLIIMDARRMQDYQDSCILHSLSVPEEAISPGVTASWIEAHLPDDSKDTWKKRGNVEYVVLLDWFSSAKDLQIGTTLRSLKDALFKWESKTVLRNEPLVLEGGYENWLLCYPQYTTNAKV
# B2: TET3 peptide 1705-1720 (methylcytosine dioxygenase TET3), 16-mer library wild type / USP8 rhodanese domain (ubiquitin carboxyl-terminal hydrolase 8, residues 174-317) (parent)
# chain 1: GLALWEAKMKQLAERA
# chain 2: B1 chain 2
# Variants of: B1
# Test: peptide-phage display deep mutational scan (M13, 16-mer library, displayed with a C-terminal GGGSG linker encoded by the 3' flank) selected against the GST-tagged USP8 rhodanese domain, four rounds; NGS counts summed over selection …
# Conditions: with USP8 rhodanese domain (ubiquitin carboxyl-terminal hydrolase 8, residues 174-317), 10 µg GST-bait on MaxiSorp, pre-cleared on GST, 2 h at 4 °C, five washes with 0.05% Tween 20 in PBS, not graded, scale: average over two replicas of the peptide's fractional NGS count
row,screen value,Variant
1,1.9e-05,chain 1 GMERVLGGLSSPLGLL
2,1.9e-05,chain 1 GMERVLGGLSSPLELL
3,0.0436,chain 1 GMERVLGGLSSPLVLL
4,0.00245,chain 1 GMERVLGGLSSPLSLL
5,5.27e-05,chain 1 GMERVLGGLSSPLNLL
6,0.0219,chain 1 GMERVLGGLSSPLMLL
7,0.00646,chain 1 GMERVLGGLSSPLILL
8,0.00719,chain 1 GMERVLGGLSSPLALL
9,0.000355,chain 1 GMERVLGGLSSPLKLL
10,0.00135,chain 1 GMERVLGGLSSPLTLL
11,0.000377,chain 1 GMERVLGGLSSPLYLL
12,1.9e-05,chain 1 GMENVLGGLSSPLRLL
13,1.26e-05,chain 1 GMELVLGGLSSPLRLL
14,1.55e-05,chain 1 GMEAVLGGLSSPLRLL
15,5.05e-05,chain 1 GMEWVLGGLSSPLRLL
16,6.32e-06,chain 1 GMETVLGGLSSPLRLL
17,6.32e-06,chain 1 GMERVLGGLISPLRLL
18,1.55e-05,chain 1 GMERVLGGLPSPLRLL
19,6.32e-06,chain 1 GMERVLGGLVSPLRLL
20,1.55e-05,chain 1 GMERVLGGLESPLRLL
21,0.00191,chain 1 GMERVLGGLHSPLRLL
22,6.32e-06,chain 1 GMERVLGGLASPLRLL
23,6.32e-06,chain 1 GMERVLGGLSSPKRLL
24,6.32e-05,chain 1 GMERVLGGLSSPGRLL
25,1.26e-05,chain 1 GMERVLGGLSSPPRLL

row,screen value,Variant
1,4.42e-05,chain 1 GMERVLGGLSSPARLL
2,2.53e-05,chain 1 GMERVLGGLSSPHRLL
3,0.00179,chain 1 GMERVLGGLSSPSRLL
4,0.000467,chain 1 GMERVLGGLSSPERLL
5,3.72e-05,chain 1 GMERVLGGLSSPDRLL
6,0.000724,chain 1 GMERVLGGLSSPWRLL
7,0.000364,chain 1 GMERVLGGLSSPVRLL
8,6.32e-06,chain 1 GMERVLGGLSSPNRLL
9,1.26e-05,chain 1 GMERVLGGLSSPLRGL
10,1.26e-05,chain 1 GMERVLGGLSSPLRNL
11,1.26e-05,chain 1 GMERVLGGLSSPLRVL
12,1.26e-05,chain 1 GMERVLGGLSSPLRAL
13,6.32e-06,chain 1 GMERVNGGLSSPLRLL
14,0.00654,chain 1 GMERVIGGLSSPLRLL
15,6.32e-06,chain 1 GMERVSGGLSSPLRLL
16,5.05e-05,chain 1 GMERVTGGLSSPLRLL
17,1.9e-05,chain 1 GMERVQGGLSSPLRLL
18,6.32e-06,chain 1 GMERVVGGLSSPLRLL
19,6.32e-06,chain 1 GMERVFGGLSSPLRLL
20,6.88e-05,chain 1 GMERVGGGLSSPLRLL
21,0.00356,chain 1 GMDRVLGGLSSPLRLL
22,6.32e-06,chain 1 GMFRVLGGLSSPLRLL
23,0.000229,chain 1 GMARVLGGLSSPLRLL
24,6.32e-05,chain 1 GMLRVLGGLSSPLRLL
25,1.26e-05,chain 1 GMVRVLGGLSSPLRLL

row,screen value,Variant
1,0.000118,chain 1 GMYRVLGGLSSPLRLL
2,0.000897,chain 1 GMNRVLGGLSSPLRLL
3,8.85e-05,chain 1 GMTRVLGGLSSPLRLL
4,0.000223,chain 1 GMSRVLGGLSSPLRLL
5,9.48e-05,chain 1 GMPRVLGGLSSPLRLL
6,0.00012,chain 1 GMHRVLGGLSSPLRLL
7,0.164,chain 1 GMERVLGGESSPLRLL
8,9.76e-05,chain 1 GMERVLGGGSSPLRLL
9,9.69e-05,chain 1 GMERVLGGKSSPLRLL
10,0.000484,chain 1 GMERVLGGISSPLRLL
11,6.18e-05,chain 1 GMERVLGGYSSPLRLL
12,0.000763,chain 1 GMERVLGGSSSPLRLL
13,0.0151,chain 1 GMERVLGGTSSPLRLL
14,9.62e-05,chain 1 GMERVLGGMSSPLRLL
15,0.00586,chain 1 GMERVLGGVSSPLRLL
16,0.00126,chain 1 GMERVLGGASSPLRLL
17,0.0392,chain 1 GMERVLGGDSSPLRLL
18,0.000202,chain 1 GMERVLGGWSSPLRLL
19,4.07e-05,chain 1 GMERVLGGHSSPLRLL
20,0.0169,chain 1 GMERVLGGQSSPLRLL
21,1.26e-05,chain 1 GMERVLGGRSSPLRLL
22,0.000947,chain 1 GMERVLGGPSSPLRLL
23,6.32e-06,chain 1 GMERVLWGLSSPLRLL
24,0.00446,chain 1 GMERVLEGLSSPLRLL
25,1.55e-05,chain 1 GMERVLKGLSSPLRLL

row,screen value,Variant
1,0.000797,chain 1 GMERVLSGLSSPLRLL
2,0.00011,chain 1 GMERVLRGLSSPLRLL
3,0.00275,chain 1 GMERVLAGLSSPLRLL
4,0.0883,chain 1 GMERVLTGLSSPLRLL
5,0.000523,chain 1 GMERVLIGLSSPLRLL
6,0.000924,chain 1 GMERVLYGLSSPLRLL
7,0.00706,chain 1 GMERVLMGLSSPLRLL
8,0.00689,chain 1 GMERVLQGLSSPLRLL
9,0.0412,chain 1 GMERVLDGLSSPLRLL
10,0.0401,chain 1 GMERVLGGLSDPLRLL
11,2.53e-05,chain 1 GMERVLGGLSFPLRLL
12,1.26e-05,chain 1 GMERVLGGLSAPLRLL
13,0.0195,chain 1 GMERVLGGLSNPLRLL
14,6.32e-06,chain 1 GMERVLGGLSYPLRLL
15,2.18e-05,chain 1 GMERVLGGLSVPLRLL
16,6.32e-06,chain 1 GMERVLGGLSRPLRLL
17,0.000128,chain 1 GMERVLGGLSEPLRLL
18,1.26e-05,chain 1 GMERVLGGLSSRLRLL
19,0.000236,chain 1 GMERVLGGLSSSLRLL
20,1.55e-05,chain 1 GMERVLGGLSSTLRLL
21,6.32e-06,chain 1 GMERVLGGLSSLLRLL
22,0.000138,chain 1 GMERVLGVLSSPLRLL
23,1.26e-05,chain 1 GMERVLGNLSSPLRLL
24,6.32e-06,chain 1 GMERVLGTLSSPLRLL
25,0.00207,chain 1 GMERGLGGLSSPLRLL

row,screen value,Variant
1,0.0085,chain 1 GMERHLGGLSSPLRLL
2,0.0217,chain 1 GMERELGGLSSPLRLL
3,0.00426,chain 1 GMERYLGGLSSPLRLL
4,6.6e-05,chain 1 GMERKLGGLSSPLRLL
5,0.0242,chain 1 GMERDLGGLSSPLRLL
6,0.000158,chain 1 GMERSLGGLSSPLRLL
7,0.000433,chain 1 GMERALGGLSSPLRLL
8,0.00268,chain 1 GMERMLGGLSSPLRLL
9,0.0191,chain 1 GMERFLGGLSSPLRLL
10,0.00579,chain 1 GMERNLGGLSSPLRLL
11,9.76e-05,chain 1 GMERILGGLSSPLRLL
12,0.00494,chain 1 HMERVLGGLSSPLRLL
13,0.00131,chain 1 DMERVLGGLSSPLRLL
14,0.00137,chain 1 WMERVLGGLSSPLRLL
15,0.00523,chain 1 TMERVLGGLSSPLRLL
16,8.36e-05,chain 1 IMERVLGGLSSPLRLL
17,0.0012,chain 1 NMERVLGGLSSPLRLL
18,0.000202,chain 1 YMERVLGGLSSPLRLL
19,3.79e-05,chain 1 VMERVLGGLSSPLRLL
20,0.000324,chain 1 MMERVLGGLSSPLRLL
21,0.0197,chain 1 AMERVLGGLSSPLRLL
22,3.16e-05,chain 1 LMERVLGGLSSPLRLL
23,0.000532,chain 1 RMERVLGGLSSPLRLL
24,0.00457,chain 1 SMERVLGGLSSPLRLL
25,0.000468,chain 1 GMERVLGGLSSPLRLI

row,screen value,Variant
1,0.00379,chain 1 GMERVLGGLSSPLRLM
2,1.26e-05,chain 1 GMERVLGGLSSPLRLP
3,6.32e-06,chain 1 GMERVLGGLSSPLRLG
4,2.53e-05,chain 1 GMERVLGGLSSPLRLF
5,1.55e-05,chain 1 GMERVLGGLSSPLRLA
6,7.58e-05,chain 1 GMERVLGGLSSPLRLQ
7,5.05e-05,chain 1 GMERVLGGLSSPLRLV
8,0.00782,chain 1 GSERVLGGLSSPLRLL
9,0.00188,chain 1 GYERVLGGLSSPLRLL
10,0.00918,chain 1 GIERVLGGLSSPLRLL
11,0.00694,chain 1 GNERVLGGLSSPLRLL
12,0.0157,chain 1 GHERVLGGLSSPLRLL
13,0.0198,chain 1 GPERVLGGLSSPLRLL
14,0.00111,chain 1 GLERVLGGLSSPLRLL
15,0.0166,chain 1 GVERVLGGLSSPLRLL
16,0.00145,chain 1 GRERVLGGLSSPLRLL
17,0.0668,chain 1 GEERVLGGLSSPLRLL
18,0.00296,chain 1 GKERVLGGLSSPLRLL
19,0.0456,chain 1 GGERVLGGLSSPLRLL
20,0.00237,chain 1 GQERVLGGLSSPLRLL
21,0.00538,chain 1 GAERVLGGLSSPLRLL
22,0.00131,chain 1 GFERVLGGLSSPLRLL
23,0.0101,chain 1 GDERVLGGLSSPLRLL
24,0.0119,chain 1 GTERVLGGLSSPLRLL
25,0.000604,chain 1 GWERVLGGLSSPLRLL

# Variants of: B2
# Test: as above
# Conditions: with USP8 rhodanese domain (ubiquitin carboxyl-terminal hydrolase 8, residues 174-317), 10 µg GST-bait on MaxiSorp, pre-cleared on GST, 2 h at 4 °C, five washes with 0.05% Tween 20 in PBS, not graded, scale: average over two replicas of the peptide's fractional NGS count
row,screen value,Variant
1,0.0108,chain 1 GLALWEAKMKLLAERA
2,0.00344,chain 1 GLALWEAKMKSLAERA
3,8.66e-05,chain 1 GLALWEAKMKYLAERA
4,2.17e-05,chain 1 GLALWEAKMKWLAERA
5,1.15e-05,chain 1 GLALWEAKMKKLAERA
6,0.00283,chain 1 GLALWEAKMKNLAERA
7,0.000142,chain 1 GLALWEAKMKTLAERA
8,8.66e-06,chain 1 GLALWEAKMKVLAERA
9,0.000162,chain 1 GLALWEAKMKRLAERA
10,0.000201,chain 1 GLALWEAKMKMLAERA
11,7.21e-05,chain 1 GLALWEAKMKQLAEDA
12,2.45e-05,chain 1 GLALWEAKMKQLAEVA
13,0.0216,chain 1 GLALWEAKMKQLAEQA
14,0.000386,chain 1 GLALWEAKMKQLAEKA
15,0.00031,chain 1 GLALWEAKMKQLAEEA
16,0.0485,chain 1 GLALWEAKMKQLAEYA
17,4.33e-06,chain 1 GLALWEAKMKQLAEAA
18,0.00935,chain 1 GLALWEAKMKQLAETA
19,0.0867,chain 1 GLALWEAKMKQLAEPA

row,screen value,Variant
1,0.0149,chain 1 GLALWEAKMKQLAESA
2,0.000125,chain 1 GLALWEAKMKQLAEWA
3,0.000427,chain 1 GLALWEAKMKQLAELA
4,0.000187,chain 1 GLALWEAKMKQLAEHA
5,2.3e-05,chain 1 GLALWEAKMKQLAEFA
6,0.000816,chain 1 GLALWEAKMKQLAEGA
7,8.62e-05,chain 1 GLALWEAKMKQLAENA
8,0.000392,chain 1 GLALWEAKMKQLAEMA
9,4.33e-06,chain 1 GLALFEAKMKQLAERA
10,1.58e-05,chain 1 GLALREAKMKQLAERA
11,1.15e-05,chain 1 GLALLEAKMKQLAERA
12,4.33e-05,chain 1 GLALPEAKMKQLAERA
13,7.36e-05,chain 1 GLALGEAKMKQLAERA
14,8.66e-06,chain 1 GLALKEAKMKQLAERA
15,4.33e-06,chain 1 GLALVEAKMKQLAERA
16,4.33e-06,chain 1 GLALHEAKMKQLAERA
17,7.78e-05,chain 1 GLALSEAKMKQLAERA
18,4.33e-06,chain 1 GLALTEAKMKQLAERA
19,0.00029,chain 1 GLALMEAKMKQLAERA
